Test results reported in the DeepSol protein solubility set.

Test: soluble on expression in E. coli; label from the status in PepcDB or PDB records

Sequence | soluble on expression in E. coli
MSALSTLKVTFIVSPPSFPCFHTPGPRRKAAPFRFTGQSAYPLWYHGGMAEAFCPVYAALNLLQEKWTLHIIRALLEGPKGFNELSRAVGGVNPATLSQRLDQLVRLGVVEKRVESYMPPRTRYSLTPAGEELEEVVQAIERWARRHLKAPDPAR | soluble
MSLRNDAYSTLRVSSEHGVARIILDNPPVNVIGATMMRELRTVLTTLADDSSVRVIVFSSADPEFFLAHVDMRIGEKMDALQELAASAPADVNVFQAVGELIRHQPQVTIVKLAGKARGGGAEFVAAADMAFAAAETAGLGQIEALMGIIPGGGGTQYLRGRVGRNRALEVVLTADLFDAETAASYGWINRALPADELDEYVDRVARNIAALPDGVIEAAKRSLPADDLKEGLLGENDAWAATFSLPAAQQLISGGLKDGAQTPAGERDLEGLMRSVAREGHHHHHH | soluble
MKFDRHRRLRSSATMRDMVRENHVRKEDLIYPIFVVEKDDVKKEIKSLPGVYQISLNLLESELKEAYDLGIRAIMFFGVPNSKDDIGTGAYIHDGVIQQATRIAKKMYDDLLIVADTCLCEYTDHGHCGVIDDHTHDVDNDKSLPLLVKTAISQVEAGADIIAPSNMMDGFVAEIRRGLDEAGYYNIPIMSYGVKYASSFFGPFRDAADSAPSFGDRKTYQMDPANRLEALRELESDLKEGCDMMIVKPALSYLDIVRDVKNHTNVPVVAYNVSGEYSMTKAAAQNGWIDEERVVMEQMVSMKRAGADMIITYFAKDICRYLDK | not soluble
MSLDYQGYLIDLDGTIYLGKEPIPAGKRFVERLQEKDLPFLFVTNNTTKSPETVAQRLANEFDIHVPASLVYTATLATIDYMKEANRGKKVFVIGEAGLIDLILEAGFEWDETNPDYVVVGLDTELSYEKVVLATLAIQKGALFIGTNPDKNIPTERGLLPGAGSVVTFVETATQTKPVYIGKPKAIIMERAIAHLGVEKEQVIMVGDNYETDIQSGIQNGIDSLLVTSGFTPKSAVPTLPTPPTYVVDSLDEWTFEGHHHHHH | soluble
MGSDKIHHHHHHMIMSEKSIVQEARDIQLAMELINLGARLQMLESETQLSRGRLIRLYKELRGSPPPKGMLPFSTDWFMTWEQNIHASMFCNAWQFLLKTGLCSGVDAVIKAYRLYLEQCPQPPEGPLLALTRAWTLVRFVESGLLELSSCNCCGGNFITHAHQPVGSFACSLCQPPSRAVKRRKLSRDAADIIPQLLDEQIEQAV | not soluble
MGSDKIHHHHHHMTPEKIEQIFRSFKEKKIAVIGDVMIDKYIFGHVSRISPEYPVPVVDVNRESSRLGGAANVAVNIHALGAEALLIGVTGDDTERRNLEALMTEHGLNPAMLAADSTRPTTCKTRILSQNHHITRVDYESRTPVDAELEKRLLGMFMEIANAVDAVVLEDYNKGVLTPSLIVSLIAACRERNKPVLVDPKLKGFFSYGGCSVFKPNLSELAASLGIPVANDDREVEQACLLLGEKLTVESLVVTRSEKGMTVYDGSFTHIPALSLDVADVSGAGDTVIGTLALGLASGLDLVTSTRIANLAANTVCQEVGAVPVRPDKLFSACLAHLQ | not soluble
VKDISMENLKKIFLGEVTNWKELGGKDQKIVILNRAAGSGTRATFEKWVLGDKTAIRAQEQDSSGMVRSIVSDTPGAISYTAFSYVTDEVATLSIDGVQPTDENVMNNKWIIWSYEHMYTRKNP | not soluble
METEIKRTSTKDIIAYLTEKFPECFSIKGPVKPLKIGIFQDLAEKLDDDETVSKTRLRQALRHYTSSWRYLKVIKVGNSRVDVDGKDVAEIDEDQAAYASKTLKESQEKFGNKKATDNDAKKPYKGKQGSTEAANNKPADKKRESTKFKTVKSTPKKTVKKEVEPLKSVESTTINVGSKVRVQLGNSPMKATITEISGKDISVQLDSGMVIKTQLQNIYL | not soluble
MSLDLEDKQQKLEQAILGALDEVQVLNEDRILRRYLDLIKATLRTNFYQPDGNGQNKSYFSFKFNPKAIPELPRPVPKYEIFVYSPRVEGVHLRGGKVARGGLRWSDREEDFRTEVLGLVKAQQVKNAVIVPVGAKGGFVPRRLPLGGSRDEIQAEAIACYRIFISGLLDITDNLKEGEVVPPANVVRHDEDDPYLVVAADKGTATFSDIANGIAAEYGFWLGDAFASGGSAGYDHKGMGITAKGAWVSVQRHFRERGIDVQKDNISVIGIGDMAGDVFGNGLLMSDKLQLVAAFNHMHIFIDPNPDAASSFVERQRLFNLPRSSWADYDAKLISAGGGIFLRSAKSIAITPEMKARFDIQADRLAPTELIHALLKAPVDLLWNGGIGTYVKSSKETHADVGDKANDGLRVDGRELRAKVVGEGGNLGMTQLARVEFGLHGGANNTDFIDNAGGVDCSDHEVNIKILLNEVVQAGDMTEKQRNALLVKMTDAVGALVLGNNYKQTQALSLAQRRARERIAEYKRLMGDLEARGKLDRALEFLPSDEELAERISAGEGHHHHHH | not soluble
